Reference: patent publication US20220275090A1, “Combination Therapies with Anti-CD38 Antibodies and PARP or Adenosine Receptor Inhibitors” (Janssen Biotech, Inc., priority 2021, published 2022)

Target: T1, mouse CD38 (Mus musculus, UniProt P56528)
T1 sequence (P56528 1-304): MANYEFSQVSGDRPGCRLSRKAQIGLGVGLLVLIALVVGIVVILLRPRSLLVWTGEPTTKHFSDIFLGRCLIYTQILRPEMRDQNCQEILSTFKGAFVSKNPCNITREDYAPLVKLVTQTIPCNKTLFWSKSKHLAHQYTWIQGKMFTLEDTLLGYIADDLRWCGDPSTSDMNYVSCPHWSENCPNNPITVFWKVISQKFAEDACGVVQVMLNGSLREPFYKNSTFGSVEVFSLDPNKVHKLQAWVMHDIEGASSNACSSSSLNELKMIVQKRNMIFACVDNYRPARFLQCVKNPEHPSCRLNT
Assay: Binding to mouse CD38 (statement)

Daratumumab: anti-CD38 antibody of IgG1/κ subtype; heavy chain SEQ ID NO: 12, light chain SEQ ID NO: 13
binding to mouse CD38: does not bind
